# According to article PMC7375649, “Varicella zoster virus encodes a viral decoy RHIM to inhibit cell death” (PLoS Pathogens, 2020):
# B1: YPet-ZBP1_(170-355) (domain or fragment)
# chain: SGRRAKSASIIYQHNPINMICQNGPNSWISIANSEAIQIGHGNIITRQTVSREDGSAGPRHLPSMAPGDSSTWGTLVDPWGPQDIHMEQSILRRVQLGHSNEMRLHGVPSEGPAHIPPGSPPVSATAAGPEASFEARIPSPGTHPEGEAAQRIHMKSCFLEDATIGNSNKMSISPGVAGPGGVAGS
# notes: human ZBP1, RHIM-containing region, residues 170-355; also called YPet-ZBP1 RHIM; source: E. coli BL21(DE3) pLysS, purified from inclusion bodies under denaturing conditions (Ni-NTA)
# B2: YPet-RIPK3_(387-518) (domain or fragment)
# chain: TSSDSMAQPPQTPETSTFRNQMPSPTSTGTPSPGPRGNQGAERQGMNWSCRTPEPNPVTGRPLVNIYNCSGVQVGDNNYLTMQQTTALPTWGLAPSGKGRGLQHPPPVGSQEGPKDPEAWSRPQGWYNHSGK
# notes: human RIPK3, RHIM-containing region, residues 387-518; source: E. coli BL21(DE3) pLysS, purified from inclusion bodies under denaturing conditions (Ni-NTA)
# Target: the molecule itself
# Assay: single molecule fluorescence confocal spectroscopy (two-colour coincidence); proteins alone or one mCherry-tagged and one YPet-tagged protein mixed, diluted out of 8 M urea to 0.35-0.7 uM in 25 mM NaH2PO4, 150 mM NaCl, 0.5 mM DTT, pH 7.4; room temperature; 488 and 561 nm lasers
row,Protein,binding result
1,B1,binds
2,B2,binds
